The results in this text go back to FireProtDB (doi:10.1074/jbc.273.1.167).

Where “and” joins values, the source holds several entries; their conditions need not be identical. Equal entries are not always repeated.

The conditions of the data set: Bos taurus, pH 7, Thermal, DSC, phosphate 10 mM, transition: 3, reversible: no, whole UniProt chain shown.

B1: Tubulin--tyrosine ligase wild type, P38584 (protein)
chain: MYTFVVRDENSSVYAEVSRLLLATGHWKRLRRDNPRFNLMLGERNRLPFGRLGHEPGLMQLVNYYRGADKLCRKASLVKLIKTSPELAESCTWFPESYVIYPTNLKTPVAPAQDGIHPPLHSSRTDEREFFLASYNRKKEEGEGNVWIAKSSAGAKGEGILISSDATELLDFIDNQGQVHVIQKYLERPLLLEPGHRKFDIRSWVLVDHQFNIYLYREGVLRTASEPYHMDNFQDKTCHLTNHCIQKEYSKNYGKYEEGNEMFFEAFNRYLTSALNITLESSILLQIKHIIRSCLMSVEPAISTKHLPYQSFQLFGFDFMVDEELKVWLIEVNGAPACAQKLYAELCQGIVDIAIASVFPPPDAEQQPPQPATFIKL
As to B1, the Tm (Mg++ 30 nM) stood at 51.1 °C; the Tm (Mg++ 182 nM) worked out at 49.9 °C; the Tm (Mg++ 2.3 micro M) was determined as 54.6 °C; the Tm (Mg++ 4.5 micro M) was 54.8 °C; the midpoint of thermal melting (Tm) (Mg++ 160 micro M) stood at 55.8 °C; the melting temperature (Tm) (Mg++ 280 micro M) is 55.6 °C and 54.2 °C. The “unfolding enthalpy (calorimetric)” value by setting is: (Mg++ 30 nM) 160 kcal/mol; (Mg++ 35 nM) 38 kcal/mol and 84 kcal/mol; (Mg++ 40 nM) 31 kcal/mol and 84 kcal/mol; (Mg++ 182 nM) 158 kcal/mol; (Mg++ 2.3 micro M) 173 kcal/mol; (Mg++ 4.5 micro M) 173 kcal/mol. Further, the “unfolding enthalpy (calorimetric)” value by setting is: (Mg++ 160 micro M) 150 kcal/mol; (Mg++ 280 micro M) 186 kcal/mol and 200 kcal/mol.

Usually Tm stands for the temperature at the midpoint of the melting transition.
